Reference: patent US20240415886A1

B1: inventive TCR specific for the mutated p53^R175H peptide in the context of HLA-A2, with murine alpha and beta constant regions, expressed from lentiviral … (TCR, V domains shown)
V domain 1: GIQVEQSPPDLILQEGANSTLRCNFSDSVNNLQWFHQNPWGQLINLFYIPSGTKQNGRLSATTVATERYSLLYISSSQTTDSGVYFCAVNQAGTALIFGKGTTLSVSS
V domain 2: EPEVTQTPSHQVTQMGQEVILRCVPISNHLYFYWYRQILGQKVEFLVSFYNNEISEKSEIFDDQFSVERPDGSNFTLKIRSTKLEDSAMYFCASMGTGDEAFFGQGTRLTVVE
B2: inventive TCR specific for the mutated p53^R175H peptide in the context of HLA-A2, with murine alpha and beta constant regions, expressed from lentiviral … (TCR)
TCR alpha: GIQVEQSPPDLILQEGANSTLRCNFSDSVNNLQWFHQNPWGQLINLFYIPSGTKQNGRLSATTVATERYSLLYISSSQTTDSGVYFCAVNQAGTALIFGKGTTLSVSSNIQNPEPAVYQLKDPRSQDSTLCLFTDFDSQINVPKTMESGTFITDKTVLDMKAMDSKSNGAIAWSNQTSFTCQDIFKETNATYPSSDVPCDATLTEKSFETDMNLNFQNLSVMGLRILLLKVAGFNLLMTLRLWSS
TCR beta: EPEVTQTPSHQVTQMGQEVILRCVPISNHLYFYWYRQILGQKVEFLVSFYNNEISEKSEIFDDQFSVERPDGSNFTLKIRSTKLEDSAMYFCASMGTGDEAFFGQGTRLTVVEDLRNVTPPKVSLFEPSKAEIANKQKATLVCLARGFFPDHVELSWWVNGKEVHSGVSTDPQAYKESNYSYCLSSRLRVSATFWHNPRNHFRCQVQFHGLSEEDKWPEGSPKPVTQNISAEAWGRADCGITSASYQQGVLSATILYEILLGKATLYAVLVSTLVVMAMVKRKNS

Legend:
[1] = molecular target: p53^R175H/HLA-A2 tetramer labeled with PE (p53^R175H peptide … with Flex-T HLA-A*02:01 monomer, Biolegend cat #280003) (human); experiment: flow cytometry, PE tetramer staining of gated CD8+GFP+ TCR-transduced primary T cells
[2] = molecular target: mutated p53^R175H peptide (…) presented by HLA-A2 on target cells (human); experiment: cell-based or functional assay

| Binder | percent of cells binding tetramer [1] [%] | avidity (lowest activating peptide concentration), CD8+ primary T cells against CD8-negative JRT cells [2] [fold] | percentage of CD8+CD137+ cells in the gated GFP+ cells [2] [ng/mL] | percentage of CD69+ cells in the gated GFP+ JRT cells [2] [ng/mL] |
| --- | --- | --- | --- | --- |
| B1 | 82.9 | – | – | – |
| B2 | – | 10 | 1 | 10 |
